The record followed here is the supplement of paper PMC9233669.

In one data set the test system is biotinyl-Met-oxazolone. The data set is described as follows: self-aminoacylation, catalytic enhancement (BMO) (fold over background); higher = more active; k-Seq, kA / k0A0; sequences stand for … in GGGAAUGGAUCCACAUCUACGAAUUC…UUCACUGCAGACUUGACGAAGCUG
Summed up:
(§1)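 Working in 50 μL HEPES/NaCl/KCl/MgCl2/CaCl2 buffer with 5% acetonitrile at pH 6.9–7.0, mutagenized RNA pools (0.43 μM; 21-nt variable region) were reacted with 2–1250 μM of each biotinyl-aminoacyl-oxazolone for 90 minutes at room temperature. Streptavidin capture followed, with quantification by triplicate qPCR and Illumina sequencing. Catalytic enhancement is reported as median kA over the uncatalyzed rate, the low-activity peak of a bimodal Gaussian fit to the data.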

Another data set has as its system biotinyl-Val-oxazolone. The data set is described as follows: self-aminoacylation, catalytic enhancement (BVO) (fold over background); higher = more active; k-Seq, kA / k0A0; sequences stand for … in GGGAAUGGAUCCACAUCUACGAAUUC…UUCACUGCAGACUUGACGAAGCUG
Summed up: as §1

The test system of a further data set is biotinyl-Ile-oxazolone. The data set is described as follows: self-aminoacylation, catalytic enhancement (BIO) (fold over background); higher = more active; k-Seq, kA / k0A0; sequences stand for … in GGGAAUGGAUCCACAUCUACGAAUUC…UUCACUGCAGACUUGACGAAGCUG
Summed up: as §1

The subject of a further data set is biotinyl-Leu-oxazolone. The data set is described as follows: self-aminoacylation, catalytic enhancement (BLO) (fold over background); higher = more active; k-Seq, kA / k0A0; sequences stand for … in GGGAAUGGAUCCACAUCUACGAAUUC…UUCACUGCAGACUUGACGAAGCUG
In a few lines:
as §1

Another data set concerns biotinyl-Trp-oxazolone. The data set is described as follows: self-aminoacylation, catalytic enhancement (BWO) (fold over background); higher = more active; k-Seq, kA / k0A0; sequences stand for … in GGGAAUGGAUCCACAUCUACGAAUUC…UUCACUGCAGACUUGACGAAGCUG
In a few lines: as §1

Another data set concerns biotinyl-Phe-oxazolone. Briefly: self-aminoacylation, catalytic enhancement (BFO) (fold over background); higher = more active; k-Seq, kA / k0A0; sequences stand for … in GGGAAUGGAUCCACAUCUACGAAUUC…UUCACUGCAGACUUGACGAAGCUG
Summed up:
as §1

Variants at the floor of the assay were thinned out.

Regarding “CUACUUCAAACAAUCGGUAUA [Fam1A.1 aminoacylation ribozyme variant]”, the self-aminoacylation worked out at 0.607 in the data set with biotinyl-Met-oxazolone; 0.688 in the data set on biotinyl-Val-oxazolone; 0.772 in the data set with biotinyl-Ile-oxazolone; 0.661 with biotinyl-Leu-oxazolone; 0.725 in the data set with biotinyl-Trp-oxazolone; 1.24 in the data set on biotinyl-Phe-oxazolone.

“AUUAACCUGUUCAUCGAGUGA [Fam2.1 aminoacylation ribozyme variant]”: the self-aminoacylation in the data set with biotinyl-Met-oxazolone was found to be 4.16; in the data set with biotinyl-Val-oxazolone, 2.4; in the data set with biotinyl-Ile-oxazolone, 2.4; with biotinyl-Leu-oxazolone, 4.93; in the data set with biotinyl-Trp-oxazolone, 5.29; in the data set with biotinyl-Phe-oxazolone it was 15.8.

As to “AAGUUUGCAAAUAGUCGCUAG [Fam3.1 aminoacylation ribozyme variant]”, the self-aminoacylation in the data set on biotinyl-Met-oxazolone was found to be 0.905; in the data set on biotinyl-Val-oxazolone, 0.856; with biotinyl-Ile-oxazolone, 1.15; with biotinyl-Leu-oxazolone, 1; in the data set with biotinyl-Trp-oxazolone, 1.84; in the data set on biotinyl-Phe-oxazolone it was 0.824.

As to “AAGUUUGGUAAUAGUCGCAUG [Fam3.1 aminoacylation ribozyme variant]”, the self-aminoacylation with biotinyl-Met-oxazolone amounted to 1.31; in the data set with biotinyl-Val-oxazolone, 1.62; in the data set on biotinyl-Ile-oxazolone, 1.51; with biotinyl-Leu-oxazolone it was 1.31; in the data set with biotinyl-Trp-oxazolone, 1.58; with biotinyl-Phe-oxazolone, 2.43.

For the sequence “CCCCACUUCCAGCAAUCGGUC [Fam1B.1 aminoacylation ribozyme variant]”, the self-aminoacylation with biotinyl-Met-oxazolone worked out at 1.78; in the data set with biotinyl-Val-oxazolone it was 2.48; with biotinyl-Ile-oxazolone, 2.18; with biotinyl-Leu-oxazolone, 2.35; in the data set on biotinyl-Trp-oxazolone, 2.16; with biotinyl-Phe-oxazolone it was 1.79.

For the sequence “AUUCUCAUAGGUCAUCGGGUG [Fam2.2 aminoacylation ribozyme variant]”, the self-aminoacylation with biotinyl-Met-oxazolone was 10.8; in the data set with biotinyl-Val-oxazolone, 6.14; with biotinyl-Ile-oxazolone, 5.71; in the data set on biotinyl-Leu-oxazolone, 13.5; with biotinyl-Trp-oxazolone, 10.6; in the data set with biotinyl-Phe-oxazolone it was 82.5.

On to “CCACACUGCAAGCAAGCGGUC [Fam1B.1 aminoacylation ribozyme variant]”, for which the self-aminoacylation with biotinyl-Met-oxazolone is 0.878; with biotinyl-Val-oxazolone, 1.61; in the data set on biotinyl-Ile-oxazolone, 1.34; in the data set with biotinyl-Leu-oxazolone, 1.23; in the data set on biotinyl-Trp-oxazolone it was 1; in the data set on biotinyl-Phe-oxazolone it was 1.05.

In the case of “GUUACCCUGGUCAUCGACUGA [Fam2.1 aminoacylation ribozyme variant]”, the self-aminoacylation stood at 1.4 in the data set with biotinyl-Met-oxazolone; 1.21 with biotinyl-Val-oxazolone; 1.2 with biotinyl-Ile-oxazolone; 1.45 in the data set on biotinyl-Leu-oxazolone; 1.01 in the data set with biotinyl-Trp-oxazolone; 0.937 in the data set with biotinyl-Phe-oxazolone.

Consider “AAGUUUGCUAUUAGUCGCAUG [Fam3.1 aminoacylation ribozyme variant]”, for which the self-aminoacylation stood at 0.953 in the data set on biotinyl-Met-oxazolone; 0.79 in the data set with biotinyl-Val-oxazolone; 1.01 with biotinyl-Ile-oxazolone; 1.21 in the data set with biotinyl-Leu-oxazolone; 0.858 in the data set on biotinyl-Trp-oxazolone; 1.98 in the data set with biotinyl-Phe-oxazolone.

For the sequence “AUUGACCUAGGUCAUUGGGUG [Fam2.2 aminoacylation ribozyme variant]”, the self-aminoacylation with biotinyl-Met-oxazolone is 2.54; with biotinyl-Val-oxazolone, 2.33; in the data set with biotinyl-Ile-oxazolone it was 2.82; in the data set on biotinyl-Leu-oxazolone, 2.94; with biotinyl-Trp-oxazolone, 3.59; with biotinyl-Phe-oxazolone, 14.7.

On to “AUGUUUGCUAAUAGACGCAAG [Fam3.1 aminoacylation ribozyme variant]”, for which the self-aminoacylation worked out at 0.611 in the data set on biotinyl-Met-oxazolone; 0.736 in the data set with biotinyl-Val-oxazolone; 0.691 in the data set on biotinyl-Ile-oxazolone; 0.564 in the data set on biotinyl-Leu-oxazolone; 0.508 in the data set on biotinyl-Trp-oxazolone; 0.828 with biotinyl-Phe-oxazolone.

“AUUGACCUAGGUCAUCGGCUG [Fam2.2 aminoacylation ribozyme variant]”: the self-aminoacylation is 1.58 with biotinyl-Met-oxazolone; 1.7 in the data set with biotinyl-Val-oxazolone; 1.6 in the data set with biotinyl-Ile-oxazolone; 1.76 in the data set on biotinyl-Leu-oxazolone; 1.95 in the data set on biotinyl-Trp-oxazolone; 1.19 with biotinyl-Phe-oxazolone.

Consider “CCACACAUCAAGCAAUCGCUC [Fam1B.1 aminoacylation ribozyme variant]”, for which the self-aminoacylation in the data set with biotinyl-Met-oxazolone amounted to 1.04; with biotinyl-Val-oxazolone, 1.68; with biotinyl-Ile-oxazolone, 1.43; with biotinyl-Leu-oxazolone, 1.21; in the data set with biotinyl-Trp-oxazolone, 1.64; in the data set with biotinyl-Phe-oxazolone, 0.869.

As to “CCACUUCAAACAAUCGGUCUG [Fam1A.1 aminoacylation ribozyme variant]”, the self-aminoacylation in the data set with biotinyl-Met-oxazolone amounted to 1.76; in the data set on biotinyl-Val-oxazolone, 1.63; in the data set with biotinyl-Ile-oxazolone it was 1.51; with biotinyl-Leu-oxazolone it was 2.75; in the data set on biotinyl-Trp-oxazolone it was 49.3; in the data set on biotinyl-Phe-oxazolone it was 114.

As to “AUUCACCUAGGUAGUCGGGUG [Fam2.2 aminoacylation ribozyme variant]”, the self-aminoacylation stood at 3.28 in the data set on biotinyl-Met-oxazolone; 2.35 in the data set with biotinyl-Val-oxazolone; 2.02 in the data set on biotinyl-Ile-oxazolone; 3.89 in the data set with biotinyl-Leu-oxazolone; 3.31 in the data set on biotinyl-Trp-oxazolone; 15.8 in the data set with biotinyl-Phe-oxazolone.

Regarding “UAGAUUGCUAAUAGUCGCAAG [Fam3.1 aminoacylation ribozyme variant]”, the self-aminoacylation with biotinyl-Met-oxazolone came to 1.19; in the data set with biotinyl-Val-oxazolone it was 1.19; with biotinyl-Ile-oxazolone, 1.19; with biotinyl-Leu-oxazolone, 1.16; with biotinyl-Trp-oxazolone, 1.13; in the data set with biotinyl-Phe-oxazolone, 1.77.

Consider “CCACACUUCAAGCAAUCGAAC [Fam1B.1 aminoacylation ribozyme variant]”, for which the self-aminoacylation came to 0.402 in the data set on biotinyl-Met-oxazolone; 0.76 in the data set on biotinyl-Val-oxazolone; 0.557 in the data set on biotinyl-Ile-oxazolone; 0.41 in the data set with biotinyl-Leu-oxazolone; 0.578 in the data set with biotinyl-Trp-oxazolone; 0.953 with biotinyl-Phe-oxazolone.

As to “CAACUUCAAACAAUCGGUGUG [Fam1A.1 aminoacylation ribozyme variant]”, the self-aminoacylation worked out at 2.15 in the data set with biotinyl-Met-oxazolone; 1.7 in the data set with biotinyl-Val-oxazolone; 1.92 with biotinyl-Ile-oxazolone; 2.53 with biotinyl-Leu-oxazolone; 16.5 with biotinyl-Trp-oxazolone; 27.3 with biotinyl-Phe-oxazolone.

As to “GAGUUUGCUAAUACUCGCAAG [Fam3.1 aminoacylation ribozyme variant]”, the self-aminoacylation in the data set with biotinyl-Met-oxazolone was determined as 0.939; with biotinyl-Val-oxazolone, 1.07; with biotinyl-Ile-oxazolone, 1.03; in the data set with biotinyl-Leu-oxazolone, 1.01; with biotinyl-Trp-oxazolone it was 1.12; with biotinyl-Phe-oxazolone, 1.09.

As for “AUACACCUAGUUCAUCGGGUG [Fam2.2 aminoacylation ribozyme variant]”, the self-aminoacylation in the data set with biotinyl-Met-oxazolone was 1.73; in the data set on biotinyl-Val-oxazolone, 2.19; in the data set with biotinyl-Ile-oxazolone, 2.33; in the data set on biotinyl-Leu-oxazolone, 1.78; with biotinyl-Trp-oxazolone it was 3.48; with biotinyl-Phe-oxazolone, 4.89.

For the sequence “AUUACCCUGGUCAUCCGGUGA [Fam2.1 aminoacylation ribozyme variant]”, the self-aminoacylation with biotinyl-Met-oxazolone came to 8.7; with biotinyl-Val-oxazolone, 6.25; with biotinyl-Ile-oxazolone, 6.78; in the data set on biotinyl-Leu-oxazolone, 9.32; in the data set with biotinyl-Trp-oxazolone it was 9.05; with biotinyl-Phe-oxazolone it was 52.5.

For “AUAACCCCGGUCAUCGAGUGA [Fam2.1 aminoacylation ribozyme variant]”, the self-aminoacylation amounted to 7.41 in the data set with biotinyl-Met-oxazolone; 3.32 in the data set with biotinyl-Val-oxazolone; 3.75 in the data set with biotinyl-Ile-oxazolone; 7.29 in the data set with biotinyl-Leu-oxazolone; 6.89 with biotinyl-Trp-oxazolone; 32.9 with biotinyl-Phe-oxazolone.

Take “AUUACCCUGGUCAUCUACUGA [Fam2.1 aminoacylation ribozyme variant]”: the self-aminoacylation is 0.663 in the data set on biotinyl-Met-oxazolone; 0.856 in the data set with biotinyl-Val-oxazolone; 0.925 with biotinyl-Ile-oxazolone; 0.676 in the data set on biotinyl-Leu-oxazolone; 0.358 in the data set with biotinyl-Trp-oxazolone; 0.799 in the data set on biotinyl-Phe-oxazolone.
